From paper PMC11297306 (Nature Communications, 2024) come the findings set out here.

For this test, the target named is VLDLRLBD-Fc fusion protein (human, UniProt P98155-1 31-355). As to the kind of experiment: BLI; […] (2.6 µM) […]; kinetic buffer with 2 mM CaCl2. The following applies: both partners purified.

B1: receptor-associated protein (RAP) (natural protein, human, UniProt P30533 35-353, looked up)
chain: YSREKNQPKPSPKRESGEEFRMEKLNQLWEKAQRLHLPPVRLAELHADLKIQERDELAWKKLKLDGLDEDGEKEARLIRNLNVILAKYGLDGKKDARQVTSNSLSGTQEDGLDDPRLEKLWHKAKTSGKFSGEELDKLWREFLHHKEKVHEYNVLLETLSRTEEIHENVISPSDLSDIKGSVLHSRHTELKEKLRSINQGLDRLRRVSHQGYSTEAEFEEPRVIDLWDLAQSANLTDKELEAFREELKHFEAKIEKHNHYQKQLEIAHEKLRHAESVGDGERVSRSREKHALLEGRTKELGYTVKKHLQDLSGRISRAR
Turning to B1, the binding result was “binds”.
